Target: the molecule itself
Experiment: SEC

B1: Mycobacterium tuberculosis CysA2 (enzyme)
chain: MARCDVLVSADWAESNLHAPKVVFVEVDEDTSAYDRDHIAGAIKLDWRTDLQDPVKRDFVDAQQFSKLLSERGIANEDTVILYGGNNNWFAAYAYWYFKLYGHEKVKLLDGGRKKWELDGRPLSSDPVSRPVTSYTASPPDNTIRAFRDEVLAAINVKNLIDVRSPDEFSGKILAPAHLPQEQSQRPGHIPGAINVPWSRAANEDGTFKSDEELAKLYADAGLDNSKETIAYCRIGERSSHTWFVLRELLGHQNVKNYDGSWTEYGSLVGAPIELGS
stoichiometry N: 2

From PMC6856128 (Scientific Reports, 2019)
